Results as given in patent US20230106511A1, “PBP3 BINDING BICYCLIC PEPTIDE LIGANDS” (priority 2020, published 2023).

T1: PBP3 of E. coli (E. coli), P0AD68
T1 chain: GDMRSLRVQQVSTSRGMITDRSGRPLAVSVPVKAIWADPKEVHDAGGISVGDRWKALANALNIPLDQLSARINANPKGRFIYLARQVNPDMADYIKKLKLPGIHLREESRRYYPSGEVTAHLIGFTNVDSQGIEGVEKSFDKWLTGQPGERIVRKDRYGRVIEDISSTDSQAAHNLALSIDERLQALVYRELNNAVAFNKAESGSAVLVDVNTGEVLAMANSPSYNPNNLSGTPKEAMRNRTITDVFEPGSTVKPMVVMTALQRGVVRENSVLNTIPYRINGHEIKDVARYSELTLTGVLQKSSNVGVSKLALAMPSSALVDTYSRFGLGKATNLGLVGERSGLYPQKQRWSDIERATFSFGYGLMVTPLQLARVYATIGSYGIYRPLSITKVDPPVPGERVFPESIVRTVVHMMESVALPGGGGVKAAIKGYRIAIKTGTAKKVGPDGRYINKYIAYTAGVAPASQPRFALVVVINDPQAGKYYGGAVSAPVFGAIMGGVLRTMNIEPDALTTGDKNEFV


Experiments:
PBP3 (E. coli) = PBP3 (E. coli) (Escherichia coli, UniProt P0AD68); test: Fluorescence polarisation direct binding assay; conditions: direct binding to PBP 3 (E. coli)
PBP3 (E. coli), sequence (P0AD68 1-577): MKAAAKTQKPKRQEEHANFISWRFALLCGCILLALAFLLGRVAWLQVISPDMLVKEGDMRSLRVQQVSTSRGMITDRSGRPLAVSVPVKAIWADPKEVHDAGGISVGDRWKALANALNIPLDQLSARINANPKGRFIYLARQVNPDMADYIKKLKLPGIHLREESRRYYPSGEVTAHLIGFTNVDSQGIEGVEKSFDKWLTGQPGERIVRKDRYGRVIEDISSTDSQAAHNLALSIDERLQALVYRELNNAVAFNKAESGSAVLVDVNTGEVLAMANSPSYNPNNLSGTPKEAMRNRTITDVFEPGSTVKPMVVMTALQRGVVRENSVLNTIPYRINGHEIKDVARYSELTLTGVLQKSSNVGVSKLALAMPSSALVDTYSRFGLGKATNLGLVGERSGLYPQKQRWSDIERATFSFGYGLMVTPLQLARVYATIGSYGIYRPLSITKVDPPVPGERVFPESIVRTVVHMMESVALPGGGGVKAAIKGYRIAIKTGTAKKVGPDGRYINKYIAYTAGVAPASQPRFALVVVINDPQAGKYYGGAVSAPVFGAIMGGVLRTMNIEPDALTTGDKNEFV
Description: Fluorescent peptides at 10 mM in DMSO were diluted to 2.5 nM in binding buffer (10 mM HEPES, pH8, 300 mM NaCl, 2% glycerol). A two-fold dilution series of PBP protein was then prepared across 12 wells in binding buffer, with the highest concentration being 21 μM, and the lowest concentration being 17 nM.
10 μl diluted fluorescent peptide (2.5 nM) was added into 12 wells of a 384-Well NBS™ Low Volume Microplate (Fisher Scientific). 10 μl PBP dilution series was then added to the wells containing the fluorescent peptide, and 5 μl binding buffer was added to bring the total volume to 25 μl and the final concentration of peptide tracer to 1 nM. A control well lacking PBP protein was prepared with a final peptide concentration of 1 nM to a final volume of 25 μl in binding buffer. Fluorescence polarisation was measured every 5 minutes for a period of one hour at room temperature. The gain and focal height were optimised using the control well lacking protein.
Data were analysed in GraphPad software to derive values for the dissociation constant. Experiments were repeated at least three times.
Certain peptide ligands of the invention were tested in the above mentioned binding assay and the results are shown in Table 1 for binding to the indicated PBP: […]

unmodified PBP protein = test: Fluorescence polarisation competition binding assay (BODIPY labelled penicillin tracer); conditions: competition with BODIPY labelled penicillin tracer
Description: Fluorescence polarisation competition was carried out using a BODIPY labelled Penicillin tracer and unlabelled peptides, for competition to an unmodified PBP protein.
Fluorescent BODIPY labelled penicillin at 5 mM in DMSO were diluted to 6.25 nM in binding buffer (10 mM HEPES, pH8, 300 mM NaCl, 2% glycerol). Unmodified PBP were diluted to 2 μM in binding buffer. A two-fold dilution series of unmodified peptide was prepared across 12 wells in binding buffer, with the highest final well concentration being 60 μM, and the lowest concentration being […]. 5 μl of the unmodified peptide dilution series or Carbenicillin were added to 12 wells of a 384-Well NBS™ Low Volume Microplate (Fisher Scientific). 10 μl diluted fluorescent BODIPY labelled penicillin (6.25 nM) were then added to the 12 wells containing the unmodified peptide dilutions. 10 μl of unmodified PBP (2 μM) were then added to the 12 wells containing unmodified peptide and fluorescent BODIPY labelled penicillin to bring the total volume to 25 μl, and the final concentration of Fluorescent BODIPY labelled penicillin to 2.5 nM and unmodified PBP to 800 nM. […]
Fluorescence polarisation was measured every 5 minutes for a period of one hour at room temperature. […]
Data were analysed in GraphPad software to derive values for the inhibition constant. […]

[1] = target: T1, PBP3 of E. coli (E. coli), P0AD68; test: FP competition, tracer BCY12820
[2] = target: T1, PBP3 of E. coli (E. coli), P0AD68; test: fluorescence polarisation competition, BODIPY-labelled penicillin as tracer

Molecule | Ki [1] | also measured
Cc1cc(C)n2c1C=C1C=CC(CCC(=O)Nc3ccc(OCC(=O)N[C@@H]4C(=O)N5[C@@H]4SC(C)(C)[C@@H]5C(=O)O)cc3)=[N+]1[B-]2(F)F [Bocillin] | – | Kd (PBP3 (E. coli)): 440 nM
A-CiLENCiiYYVPYYGYACiii-A, TATA bicyclic peptide [BCY12123, A-(SEQ ID NO: 3)-A] | – | Ki (unmodified PBP protein): 1390 nM
ACLENCYYVPYYGYACA (modifications not checked) [BCY12123] | – | Ki [2]: 1390 nM
ACQFPVCPWVEGCA (modifications not checked) [BCY13226] | 20 nM | –
CSFPKCPWVEGC (modifications not checked) [BCY12742] | 3 nM | –

Second part, led by results:

Ki [1] | Molecule | also measured
4 nM | ACSFPACPWVEGCA (modifications not checked) [BCY13659] | –
< 3820 nM | ACVYPKCPWVEGCA (modifications not checked) [BCY13768] | –
< 4080 nM | ACWFPNCPWVEGCA (modifications not checked) [BCY13764] | –
5 nM | ACAFPKCPWVEGCA (modifications not checked) [BCY13656] | –
30 nM | ACSFPKCPWVEACA (modifications not checked) [BCY13664] | –
40 nM | ACSFPKCPWVEKCA (modifications not checked) [BCY13419] | –
45400 nM | CSFPKCPWVEGC (modifications not checked) [BCY13949] | –
